Biological target: lysozyme (UniProt P00698)
Assay: ELISA

B1: camel nanobody 1ZVH, displayed on phage (VHH)
VHH: DVQLVESGGGSVQAGGSLRLSCAASGYIASINYLGWFRQAPGKEREGVAAVSPAGGTPYYADSVKGRFTVSLDNAENTVYLQMNSLKPEDTALYYCAAARQGWYIPLNSYGYNYWGQGTQVTVSS
  binding result: binds

Reference: publication doi:10.1101/2022.04.11.487660 (bioRxiv, 2022)
